Test results taken from patent US20260125448A1 (published 2026).

Target: T1, MAGE-A4 (peptide named MA4-286) peptide on HLA-A*02:01 (human)
T1 peptide: KVLEHVVRV
Test: multimer staining

B1: MA4-286 G6 TCR (TCR, V domains shown)
Valpha: AQTVTQSQPEMSVQEAETVTLSCTYDTSENNYYLFWYKQPPSRQMILVIRQEAYKQQNATENRFSVNFQKAAKSFSLKISDSQLGDTAMYFCASHSGAGSYQLTFGKGTKLSVIP
Vbeta: DTGVSQDPRHKITKRGQNVTFRCDPISEHNRLYWYRQTLGQGPEFLTYFQNEAQLEKSRLLSDRFSAERPKGSFSTLEIQRTEQGDSAMYLCASSPTGGFYEQYFGPGTRLTVT
B1: recognises.
